In paper PMC9275233, “Functional Characterization of a Regiospecific Sugar-O-Methyltransferase from Nocardia” (Applied and Environmental Microbiology, 2022):

Assays:
[1] = tested on: C[C@@H]1O[C@@H](Oc2ccc(O)c3c2C(=O)c2ccccc2C3=O)[C@H](O)[C@H](O)[C@H]1O; experiment: HPLC methylation assay, nonlinear Michaelis-Menten fit; type: biochemical, Nocardia sp. CS682; details: 2 mM SAM (saturating), 2 mM MgCl2, 50 mM Tris-HCl pH 7.5, QR 5 to 200 μM
[2] = tested on: C[S+](CC[C@H](N)C(=O)O)C[C@H]1O[C@@H](n2cnc3c(N)ncnc32)[C@H](O)[C@@H]1O; experiment: as above; type: biochemical, Nocardia sp. CS682; details: 100 μM QR (near saturation), 2 mM MgCl2, 50 mM Tris-HCl pH 7.5, SAM 5 to 200 μM

In the case of ThnM1 (Nocardia sp. CS682), the Km [1] is reported as 11.70 ± 1.97 µM and the Km [2] is reported as 32.7 ± 7.06 µM.
